# Reference: patent US20250319154A1
# Molecular target: leukocyte function antigen (LFA-1) on THP-1 cells (human) (UniProt P20701)
# Test: cell-based or functional assay
# leukocyte function antigen (LFA-1) on THP-1 cells (human), sequence (P20701 26-1170, chain 1 of 2): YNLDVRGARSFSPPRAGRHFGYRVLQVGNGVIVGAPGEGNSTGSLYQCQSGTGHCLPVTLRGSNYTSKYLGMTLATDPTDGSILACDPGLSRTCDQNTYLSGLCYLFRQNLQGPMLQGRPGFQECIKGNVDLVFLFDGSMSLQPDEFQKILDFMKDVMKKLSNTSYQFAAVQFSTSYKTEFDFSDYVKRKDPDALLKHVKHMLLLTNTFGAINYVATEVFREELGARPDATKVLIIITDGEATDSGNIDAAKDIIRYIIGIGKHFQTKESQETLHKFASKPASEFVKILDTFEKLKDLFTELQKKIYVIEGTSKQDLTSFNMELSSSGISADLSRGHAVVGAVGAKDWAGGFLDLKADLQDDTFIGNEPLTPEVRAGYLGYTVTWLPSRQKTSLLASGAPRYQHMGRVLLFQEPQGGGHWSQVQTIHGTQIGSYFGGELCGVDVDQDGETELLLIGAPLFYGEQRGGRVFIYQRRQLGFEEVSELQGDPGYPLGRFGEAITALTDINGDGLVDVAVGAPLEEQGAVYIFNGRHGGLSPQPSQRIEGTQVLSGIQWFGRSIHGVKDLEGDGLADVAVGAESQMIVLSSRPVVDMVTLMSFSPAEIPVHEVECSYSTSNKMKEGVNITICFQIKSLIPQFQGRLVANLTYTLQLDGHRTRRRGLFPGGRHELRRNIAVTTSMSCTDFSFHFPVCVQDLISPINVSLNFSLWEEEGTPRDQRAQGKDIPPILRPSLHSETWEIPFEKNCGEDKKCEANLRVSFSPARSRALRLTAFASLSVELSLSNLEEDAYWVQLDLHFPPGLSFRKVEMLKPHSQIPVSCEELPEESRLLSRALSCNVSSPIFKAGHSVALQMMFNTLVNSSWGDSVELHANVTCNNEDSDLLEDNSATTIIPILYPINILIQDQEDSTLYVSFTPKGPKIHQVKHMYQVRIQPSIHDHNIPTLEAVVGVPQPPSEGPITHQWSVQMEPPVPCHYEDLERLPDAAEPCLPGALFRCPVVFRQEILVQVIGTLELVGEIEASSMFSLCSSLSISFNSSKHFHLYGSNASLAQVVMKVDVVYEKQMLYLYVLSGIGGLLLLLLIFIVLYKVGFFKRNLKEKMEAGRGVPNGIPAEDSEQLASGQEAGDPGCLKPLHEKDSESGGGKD
# leukocyte function antigen (LFA-1) on THP-1 cells (human), sequence (P05107 23-769, chain 2 of 2, further chain): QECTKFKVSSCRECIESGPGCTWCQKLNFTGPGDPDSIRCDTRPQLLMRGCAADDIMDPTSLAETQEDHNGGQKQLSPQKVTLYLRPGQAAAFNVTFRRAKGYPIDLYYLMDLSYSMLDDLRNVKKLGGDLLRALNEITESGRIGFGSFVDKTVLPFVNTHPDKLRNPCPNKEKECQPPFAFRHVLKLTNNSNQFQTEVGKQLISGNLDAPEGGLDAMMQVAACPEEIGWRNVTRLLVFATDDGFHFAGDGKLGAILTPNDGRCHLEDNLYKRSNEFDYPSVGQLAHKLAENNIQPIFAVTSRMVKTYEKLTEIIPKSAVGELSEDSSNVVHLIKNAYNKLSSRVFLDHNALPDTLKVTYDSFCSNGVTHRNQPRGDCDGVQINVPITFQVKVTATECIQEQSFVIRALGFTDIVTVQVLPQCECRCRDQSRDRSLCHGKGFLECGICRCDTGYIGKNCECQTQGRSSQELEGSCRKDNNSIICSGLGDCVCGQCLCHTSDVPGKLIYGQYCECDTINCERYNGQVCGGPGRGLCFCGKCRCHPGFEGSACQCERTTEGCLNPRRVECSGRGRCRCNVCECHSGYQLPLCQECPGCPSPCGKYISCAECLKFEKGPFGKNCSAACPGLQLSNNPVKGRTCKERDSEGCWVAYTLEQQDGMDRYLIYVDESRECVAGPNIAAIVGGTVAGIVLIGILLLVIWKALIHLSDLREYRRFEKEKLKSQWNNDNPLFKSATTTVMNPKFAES
substance,measurement,value
Leukotoxin (LtxA) polypeptide isolated from Aggregatibacter actinomycetemcomitans (from UniProt P16462 1-1055),"10%-maximal effective concentration (EC10), calculated from an in vitro model using THP-1 cells",0.02 µg/mL
